This note sets out measurements from article PMC9175631 (Journal of Virology, 2022).

Experiment [1] concerns the target ZIKV prM/E (ZIKV SPH2015), E E162A (Zika virus (ZIKV SPH2015)). The experiment in a line: flow cytometry on cells. In general terms: Flow cytometry measures light scatter and fluorescence of single cells or particles in a stream.
Experiment [2] concerns the target ZIKV prM/E (ZIKV SPH2015), E E370A (Zika virus (ZIKV SPH2015)). The experiment in a line: flow cytometry on cells.
Experiment [3] concerns the target ZIKV prM/E (ZIKV SPH2015), E G182A (Zika virus (ZIKV SPH2015)). As to the kind of experiment: flow cytometry on cells.
Experiment [4] deals with ZIKV prM/E (ZIKV SPH2015), E G302A (Zika virus (ZIKV SPH2015)). The experiment in a line: flow cytometry on cells.
The target of experiment [5] is ZIKV prM/E (ZIKV SPH2015), E G337A (Zika virus (ZIKV SPH2015)). The experiment in a line: flow cytometry on cells.
Experiment [6] addresses ZIKV prM/E (ZIKV SPH2015), E H398A (Zika virus (ZIKV SPH2015)). The experiment in a line: flow cytometry on cells.
In experiment [7] the target is ZIKV prM/E (ZIKV SPH2015), E H399A (Zika virus (ZIKV SPH2015)). The experiment in a line: flow cytometry on cells.
The target of experiment [8] is ZIKV prM/E (ZIKV SPH2015), E I317A (Zika virus (ZIKV SPH2015)). As to the kind of experiment: flow cytometry on cells.
For experiment [9], the target named is ZIKV prM/E (ZIKV SPH2015), E K301A (Zika virus (ZIKV SPH2015)). The experiment in a line: flow cytometry on cells.
In experiment [10] the target is ZIKV prM/E (ZIKV SPH2015), E S368A (Zika virus (ZIKV SPH2015)). The experiment in a line: flow cytometry on cells.
Experiment [11] concerns the target ZIKV prM/E (ZIKV SPH2015), E T309A (Zika virus (ZIKV SPH2015)). As to the kind of experiment: flow cytometry on cells.
Experiment [12] concerns the target ZIKV prM/E (ZIKV SPH2015), E T335A (Zika virus (ZIKV SPH2015)). The experiment in a line: flow cytometry on cells.
Experiment [13] addresses ZIKV prM/E (ZIKV SPH2015), E T369A (Zika virus (ZIKV SPH2015)). As to the kind of experiment: flow cytometry on cells.
Experiment [14] concerns the target ZIKV prM/E (ZIKV SPH2015), E T397A (Zika virus (ZIKV SPH2015)). The experiment in a line: flow cytometry on cells.
Experiment [15] addresses ZIKV prM/E (ZIKV SPH2015), prM D57A (Zika virus (ZIKV SPH2015)). The experiment in a line: flow cytometry on cells.
The target in experiment [16] is ZIKV prM/E (ZIKV SPH2015), prM E58A (Zika virus (ZIKV SPH2015)). As to the kind of experiment: flow cytometry on cells.
In experiment [17] the target is ZIKV prM/E (ZIKV SPH2015), prM G59A (Zika virus (ZIKV SPH2015)). As to the kind of experiment: flow cytometry on cells.
Experiment [18] addresses ZIKV prM/E (ZIKV SPH2015), prM V60A (Zika virus (ZIKV SPH2015)). The experiment in a line: flow cytometry on cells.
For experiment [19], the target named is T1, wild-type ZIKV prM/E (ZIKV SPH2015) (Zika virus, SPH2015, UniProt A0A0U3FSM8, strain).
T1 construct: also called WT prM/E; wild-type prM/E; source: HEK-293T, transfected, cells fixed and permeabilised
The experiment in a line: flow cytometry on cells. As to conditions: one partner purified.

In experiment [20] the target is T2, ZIKV virus-like particles (Suriname Z1106033) (Zika virus, Suriname Z1106033, UniProt A0A0U4DG08, strain).
T2 construct: also called ZIKV-VLP; VLP; source: bought: The Native Antigen Company
The experiment in a line: BLI; Octet HTX; MAb 0.1 to 0.3 μg/mL amine-coupled to AR2G biosensor; ZIKV-VLP 0.1 to 1.0 μg/mL or ZIKV E protein 0.2 to 2 μg/mL in 1x kinetic buffer; association 900 s, dissociation 1,200 s; Langmuir 1:1 model; average of two runs. As to conditions: both partners purified. On the technique in general: BLI is a label-free optical method that tracks binding on a fibre tip over time.

Experiment [21] addresses T3, ZIKV E protein (Suriname Z1106033) (Zika virus, Suriname Z1106033, UniProt A0A0U4DG08, strain).
T3 construct: also called soluble ZIKV E protein
The experiment is described as above. To be noted: both partners purified.

The target of experiment [22] is ZIKV prM/E (ZIKV SPH2015), E G100A (Zika virus (ZIKV SPH2015)). As to the kind of experiment: flow cytometry on cells.
Experiment [23] addresses ZIKV prM/E (ZIKV SPH2015), E L107A (Zika virus (ZIKV SPH2015)). As to the kind of experiment: flow cytometry on cells.
Experiment [24] has as its target T3, ZIKV E protein (Suriname Z1106033). As to the kind of experiment: cell-based or functional assay.
The target of experiment [25] is T4, ZIKV prM protein of heat-denatured ZIKV-VLP (Western band) (Zika virus, Suriname Z1106033, UniProt A0A0U4DG08, strain).
T4 construct: subunit of m13; also called precursor membrane protein
As to the kind of experiment: Western blot (Wes capillary electrophoresis); 27 or 240 ng ZIKV-VLP denatured at 70°C for 5 min without reducing agent, electrophoresed, probed with 10 μg/mL MAb. To be noted: both partners purified. Background: A western blot detects proteins with antibodies after separation by electrophoresis.

B1: anti-ZIKV MAb 78-2 (antibody, V domains shown)
VH: QQQLVESGGGLVKPGASLTLNCKASGLDFSTNSYMCWVRQAPGKGLEWIACIYVGDSSEIYYASWAKGRFTISKTSSTTVTLQMTSLTAADTATYFCARDLPSFTAPYAGYLRLWGPGTLVTVSS
VL: QPVLTQPPSLSASLGTTARLTCTLRTGYNVGDYPLLWLQRVPGRPPRYLLTYHTEEFKHQGSGVHSRFSGSKDASENAGVLSISGLQPEDEANYYCYTVHATESSLHYVFGGGTQLTVT
On to B1, for which the antibody binding reactivity (% WT) in [1] is 101 % WT; in [2], 92.7 % WT; in experiment [3], 110 % WT; in experiment [4], 69.2 % WT; in [5] it was 59.7 % WT; in experiment [6], 92.9 % WT. In addition, the antibody binding reactivity (% WT) in [7] was 97.2 % WT; in experiment [8], 61.2 % WT; in experiment [9], 82.5 % WT; in experiment [10], 87.5 % WT; in experiment [11] it was 96.2 % WT; in [12], 71.6 % WT. Besides, the antibody binding reactivity (% WT) in experiment [13] came out at 113 % WT; in experiment [14] it was 147 % WT; in experiment [15], 123 % WT; in [16] it was 130 % WT; in [17] it was 117 % WT; in experiment [18], 113 % WT. The binding result in experiment [19] is reported as “binds”. In addition, the figures for the Kd in experiment [20] and in [21] were 0.19 nM and 0.1 nM, respectively. The koff (as a rule, a measure of how fast the partners let go of each other) worked out at 4.28e-05 s⁻¹ in [20] and 1.94e-05 s⁻¹ in experiment [21]. Further, the kon (as a rule, the rate constant with which the complex forms) in [20] stood at 221000 M⁻¹ s⁻¹; in [21], 192000 M⁻¹ s⁻¹.

B2: anti-ZIKV MAb 242-3 (antibody, V domains shown)
VH: QAQLEESGGDLVKPEGSLTLTCTASGFSFTDRHYMCWIRQAPGKGLEWIACVYPGSSGSTYYASWARGRFTISKTSSTTVTLRMTSLTAADTATYFCARSSYPDSSGYSYGMDLWGPGTLVTVSS
VL: DIVMTQTPASVEAAVGGTVTIKCQASQNINSNLAWYQQKPGQRPKFLMYLTSKLASGVPSRFRGSGSGTQFTLTISDLECADAATYYCQTYYDISNYGYAFGGGTEVVVK
notes: recombinant rabbit IgG; 99% amino acid identity with 270-12
As for B2, the antibody binding reactivity (% WT) in [1] is 79.6 % WT; in experiment [22], 70.3 % WT; in [3], 85.6 % WT; in experiment [4] it was 68.3 % WT; in [5], 48.3 % WT; in experiment [6], 77.2 % WT. In addition, the antibody binding reactivity (% WT) in [7] is 127 % WT; in [8], 112 % WT; in [9], 78.7 % WT; in [23] it was 122 % WT; in [10], 89.1 % WT; in experiment [11] it was 104 % WT. Moreover, the antibody binding reactivity (% WT) in experiment [12] was 36.2 % WT; in experiment [13], 34.5 % WT; in [14], 111 % WT; in [15], 91.9 % WT; in experiment [16], 96.8 % WT; in [17], 94.9 % WT. In addition, the antibody binding reactivity (% WT) in experiment [18] was 97.2 % WT. Further, in [19], the binding result is “binds”. In experiment [24], the other amounted to 42.8 ng/mL. Also, the Kd (usually the constant that tells how readily two partners part at equilibrium) in experiment [20] came out at 0.24 nM; in experiment [21], 1.22 nM. Moreover, the koff amounted to 4.93e-05 s⁻¹ in [20] and 8.16e-05 s⁻¹ in experiment [21]. For the same molecule, the results for the kon in experiment [20] and in [21] were 202000 M⁻¹ s⁻¹ and 67100 M⁻¹ s⁻¹, respectively.

B3: anti-ZIKV MAb 278-11 (antibody, V domains shown)
VH: QSLEESGGGLVQPEGSLTLACTASEFDSSSNAMCWVRQAPGKGLEWIARIYSGSGTIYYANWARGRFTISKTSSTTVTLQMTSLTDADTATYFCARYNTGGFYYDLWGPGTLVTVSS
VL: ALVMTQTPASVEAAVGGTVTINCQASQRIGTNLAWYQQKPGQPPKVLIYKASTLASGVSSRFIGSGSGTDYTLTISGVECDDAATYYCQQGYSSNDADNTFGGGTEVVVK
notes: recombinant rabbit IgG; source: 293-6E cells, cotransfected, purified (MabSelect SuRe protein A)
Regarding B3, the antibody binding reactivity (% WT) in experiment [1] turned out to be 77.8 % WT; in experiment [22] it was 95.1 % WT; in experiment [3] it was 85.9 % WT; in [17], 28.5 % WT. In addition, the binding result in experiment [19] and in experiment [25] was “binds” in each case.
